According to US20210024601A1 (published 2021):

T1: recombinant human CD25 extracellular domain tagged with 6xHis (human, UniProt P01589 22-240)
T1 chain: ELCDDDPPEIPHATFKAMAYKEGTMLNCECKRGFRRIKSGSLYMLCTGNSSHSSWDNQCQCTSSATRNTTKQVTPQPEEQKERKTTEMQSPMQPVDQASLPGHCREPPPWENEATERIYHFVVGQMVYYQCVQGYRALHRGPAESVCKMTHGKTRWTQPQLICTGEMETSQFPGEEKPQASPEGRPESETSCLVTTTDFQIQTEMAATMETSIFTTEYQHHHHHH


How the values were obtained:
[1] = biological target: T1, recombinant human CD25 extracellular …
[2] = biological target: V69A
[3] = biological target: L72I
[4] = biological target: M104D
[5] = biological target: I114W
[6] = biological target: N71Y

Kd [1]	Kd [2]	Kd [3]	Kd [4]	Kd [5]	Kd [6]	Binder
22 pM						E68Q (protein) APTSSSTKKTQLQLEHLLLDLQMILNGINNYKNPKLTRMLTFKFYMPKKATELKHLQCLEEELKPLEQALNLAPSKNFHLRPRDLISNINVIVLELKGSETTFMCEYADETATIVEFLNRWITFSQSIISTLT
	23 pM	24 pM	28 pM	38 pM	18 pM	CD25 (receptor) ELCDDDPPEIPHATFKAMAYKEGTMLNCECKRGFRRIKSGSLYMLCTGNSSHSSWDNQCQCTSSATRNTTKQVTPQPEEQKERKTTEMQSPMQPVDQASLPGHCREPPPWENEATERIYHFVVGQMVYYQCVQGYRALHRGPAESVCKMTHGKTRWTQPQLICTGEMETSQFPGEEKPQASPEGRPESETSCLVTTTDFQIQTEMAATMETSIFTTEYQHHHHHH
